Experimental data from US20110177998A1 (COMPUGEN, published 2011).
Blank lines part the entries; values can stand above or below the binder they belong to. Positions of bridges follow the written chain, without caps; N, C: chain ends. Chains are numbered I, II in the order given. No end group written: not given here.

Assays:
[1] = biological target: T1, LGR8 (RXFP2) (human, UniProt Q8WXD0 1-754); test: cell-based or functional assay
[2] = biological target: T2, LGR7 (RXFP1) (human, UniProt Q9HBX9 1-757); test: cell-based or functional assay
T2 sequence (looked up): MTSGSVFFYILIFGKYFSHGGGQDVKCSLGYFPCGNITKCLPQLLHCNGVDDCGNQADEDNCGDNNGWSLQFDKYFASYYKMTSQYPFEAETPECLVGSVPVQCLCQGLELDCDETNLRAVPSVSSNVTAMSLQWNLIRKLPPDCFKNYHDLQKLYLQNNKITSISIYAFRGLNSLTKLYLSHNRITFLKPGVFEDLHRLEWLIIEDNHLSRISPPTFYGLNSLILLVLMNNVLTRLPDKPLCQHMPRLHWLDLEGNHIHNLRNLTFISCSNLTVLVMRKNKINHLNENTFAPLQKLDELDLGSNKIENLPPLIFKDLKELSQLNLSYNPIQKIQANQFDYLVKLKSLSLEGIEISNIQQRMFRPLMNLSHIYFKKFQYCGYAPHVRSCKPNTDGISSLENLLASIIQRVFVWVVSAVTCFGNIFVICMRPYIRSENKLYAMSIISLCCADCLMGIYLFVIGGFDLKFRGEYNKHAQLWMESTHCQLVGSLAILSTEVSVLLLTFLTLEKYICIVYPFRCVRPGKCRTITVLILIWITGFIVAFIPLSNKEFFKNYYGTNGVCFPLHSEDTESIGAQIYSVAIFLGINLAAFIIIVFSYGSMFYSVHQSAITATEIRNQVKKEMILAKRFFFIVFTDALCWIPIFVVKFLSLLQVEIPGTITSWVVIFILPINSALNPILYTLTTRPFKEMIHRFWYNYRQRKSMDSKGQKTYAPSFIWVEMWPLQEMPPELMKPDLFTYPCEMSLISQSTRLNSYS

[3] = biological target: T1, LGR8 (RXFP2); test: Competition binding against Europium-INSL3 on HEK-293T cells expressing LGR8

T1 sequence (Q8WXD0 whole entry): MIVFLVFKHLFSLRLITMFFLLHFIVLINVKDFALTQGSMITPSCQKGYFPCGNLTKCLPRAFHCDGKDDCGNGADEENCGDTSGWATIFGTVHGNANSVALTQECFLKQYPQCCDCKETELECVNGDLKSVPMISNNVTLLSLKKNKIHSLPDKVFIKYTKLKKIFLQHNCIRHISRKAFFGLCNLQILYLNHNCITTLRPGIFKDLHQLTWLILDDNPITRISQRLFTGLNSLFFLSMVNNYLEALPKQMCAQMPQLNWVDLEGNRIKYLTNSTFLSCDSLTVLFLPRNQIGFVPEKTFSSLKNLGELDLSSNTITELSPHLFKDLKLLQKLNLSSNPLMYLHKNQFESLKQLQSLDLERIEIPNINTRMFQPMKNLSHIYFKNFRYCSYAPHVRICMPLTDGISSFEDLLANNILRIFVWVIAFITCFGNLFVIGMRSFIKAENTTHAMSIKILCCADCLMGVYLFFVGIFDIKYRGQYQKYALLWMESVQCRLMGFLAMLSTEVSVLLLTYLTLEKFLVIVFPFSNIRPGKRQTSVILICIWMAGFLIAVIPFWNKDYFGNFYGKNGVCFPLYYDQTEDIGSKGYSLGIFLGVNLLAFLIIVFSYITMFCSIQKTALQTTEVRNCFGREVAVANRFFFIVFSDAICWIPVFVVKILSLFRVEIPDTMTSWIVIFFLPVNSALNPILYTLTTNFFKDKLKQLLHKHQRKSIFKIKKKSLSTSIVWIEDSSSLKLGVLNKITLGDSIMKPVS

pCRE-beta-gal reporter after 5 uM forskolin, CHO-K1 cells, % of Forskolin activity [1]: ~2 fold of Forskolin
pCRE-beta-gal reporter after 5 uM forskolin, CHO-K1 cells, % of Forskolin activity [2]: ~2 fold of Forskolin
Binder: AYAAFSV-NH2 [Peptide P59-S-Amide (Amide)]

EC50, cell impedance dose response (ACEA RT-CES), transfected CHO-K1 cells [2]: ~300 nM
binding result [3]: binds
Binder: GQKGQVGPPGAAVRRAYAAFSVGRRAYAAFSV (Free acid C-terminus) [Peptide P74C13V (free acid)]

EC50, cell impedance dose response (ACEA RT-CES), transfected CHO-K1 cells [2]: ~100 nM
B1: H2 Relaxin (ligand)
chain 1: QLYSALANKCCHVGCTKRSLARFC
chain 2: DSWMEEVIKLCGRELVRAQIAICGMSTWS
modifications: disulfide I:10-I:15, I:11-II:11, I:24-II:23; not fully specified (some residues); ends not checked

binding result [3]: binds
B2: Peptide P59C13V-Amide (amide) (peptide)
peptide: GQKGQVGPPGAAVRRAYAAFSV-NH2
notes: Synthetic peptide, the C-terminally amidated form of P59C13V; also called P59-Amide; P59 Amide
